According to publication PMC7844570:

Target: L-lysine α-oxidase precursor from Trichoderma viride (Trichoderma viride)
Test: crystal structure; prLysOX crystals by sitting-drop vapor diffusion at 20 °C, 0.1 M Tris-HCl pH 8.0-9.0, 2-2.1 M ammonium dihydrogen phosphate; space group C222(1); one molecule in the asymmetric unit, dimer formed by crystallographic two-fold symmetry; 1.97 Å

L-lysine α-oxidase precursor from Trichoderma viride (enzyme)
stoichiometry N: 2
